Data: PMC10500059, “Allosteric activation of RhlB by RNase E induces partial duplex opening in substrate RNA” (Frontiers in Molecular Biosciences, 2023)
Each block holds one molecule with its values, some of them ahead of it.

What was measured:
[1] = biological target: T1, RhlB (E. coli DEAD-box RNA helicase), wild type (E. coli) (UniProt P0A8J8)
T1 sequence: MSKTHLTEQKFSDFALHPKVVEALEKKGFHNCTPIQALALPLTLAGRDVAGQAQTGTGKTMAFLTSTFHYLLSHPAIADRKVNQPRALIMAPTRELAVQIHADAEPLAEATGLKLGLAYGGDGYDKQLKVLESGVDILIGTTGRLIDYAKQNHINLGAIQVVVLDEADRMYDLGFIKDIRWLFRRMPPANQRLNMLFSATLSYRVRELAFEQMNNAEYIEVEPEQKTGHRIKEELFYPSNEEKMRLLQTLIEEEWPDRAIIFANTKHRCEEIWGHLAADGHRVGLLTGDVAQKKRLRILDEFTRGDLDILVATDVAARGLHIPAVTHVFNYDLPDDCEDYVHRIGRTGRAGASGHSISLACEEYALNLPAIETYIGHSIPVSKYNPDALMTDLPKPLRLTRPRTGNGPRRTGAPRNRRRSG

[2] = biological target: T1, RhlB (E. coli DEAD-box RNA helicase), wild type (E. coli); remark: listed apart in the source
[3] = biological target: T2, RhlB (E. coli DEAD-box RNA helicase), wild type (E. coli, UniProt P0A8J8 1-421); experiment: cell-based or functional assay
T2 sequence (looked up): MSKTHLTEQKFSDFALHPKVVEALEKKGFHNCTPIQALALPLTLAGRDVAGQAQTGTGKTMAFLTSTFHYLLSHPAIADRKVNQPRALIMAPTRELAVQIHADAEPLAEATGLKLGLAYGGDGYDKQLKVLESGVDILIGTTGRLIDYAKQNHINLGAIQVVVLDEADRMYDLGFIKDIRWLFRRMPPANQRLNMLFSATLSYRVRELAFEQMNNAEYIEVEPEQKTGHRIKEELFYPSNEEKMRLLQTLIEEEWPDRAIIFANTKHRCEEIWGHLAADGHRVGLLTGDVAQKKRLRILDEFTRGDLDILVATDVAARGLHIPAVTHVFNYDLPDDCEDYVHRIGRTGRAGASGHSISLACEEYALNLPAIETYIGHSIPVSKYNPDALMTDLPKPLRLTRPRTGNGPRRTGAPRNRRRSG

[4] = biological target: T3, RhlB (Escherichia coli, UniProt P0A8J8 1-421); experiment: NMR (1H imino titration); no ATP; 4.5 mM Mg2+; NMR: 150 mM KCl, 25 mM Tris/HCl, 5 mM DTT, 4.5 mM MgCl2, pH 8.3, 288 K, 100 µM RNA; EMSA: 150 mM NaCl, 25 mM Tris, 1.5 mM MgCl2, 5 mM DTT, 10% glycerol, pH 8.3, 4 C, 1.5 µM RNA; settings: protein: recombinant, tags: C-terminal TEV site (ENLYFQG) + 6xHis, His-tag removed by TEV, site remnant left
T3 sequence: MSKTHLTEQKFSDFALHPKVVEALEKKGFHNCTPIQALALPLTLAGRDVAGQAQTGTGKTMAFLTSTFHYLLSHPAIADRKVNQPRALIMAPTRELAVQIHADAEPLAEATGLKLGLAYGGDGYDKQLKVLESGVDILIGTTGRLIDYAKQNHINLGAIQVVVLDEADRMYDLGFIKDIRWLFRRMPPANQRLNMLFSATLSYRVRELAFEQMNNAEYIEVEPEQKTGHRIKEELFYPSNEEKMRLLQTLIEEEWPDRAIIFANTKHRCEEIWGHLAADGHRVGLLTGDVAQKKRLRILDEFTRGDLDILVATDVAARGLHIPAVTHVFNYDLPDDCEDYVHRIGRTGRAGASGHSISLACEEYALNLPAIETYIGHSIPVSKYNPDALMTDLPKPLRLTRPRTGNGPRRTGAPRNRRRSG

[5] = biological target: RhlB;RNase E (694-790) (Escherichia coli;Escherichia coli, UniProt P0A8J8;P21513 1-421;694-790, |); experiment: as above; settings: protein: recombinant;recombinant, tags: C-terminal TEV site (ENLYFQG) + 6xHis, His-tag removed by TEV, site remnant left;N-terminal 6xHis-TEV, purified analogously (tag cleaved), copies: 1;1
[6] = label: none (titration), single strand, two weak base pairs under NMR conditions
[7] = label: none (titration), 3' overhang 8 nt

ATP turnover rate of RhlB (EnzChek phosphate assay, 2.4 uM RhlB and RNase E fragment, 6 uM RNA substrates of different topology), fold increase over RhlB alone [1]: < 27 fold
ATP turnover of RhlB with 5'-OV RNA, activation factor over RhlB alone, 31P real-time NMR experiment (400 uM RhlB/RNase E 1:1, 100 uM RNA) [2]: 2 fold
ATP turnover of RhlB with 5'-OV RNA, activation factor over RhlB alone, phosphate assay [2]: 10 fold
Molecule: RNase E (628-843) (from UniProt P21513 628-843) (domain or fragment)

ATP turnover rate of RhlB (EnzChek phosphate assay, 2.4 uM RhlB and RNase E fragment, 6 uM RNA substrates of different topology), fold increase over RhlB alone [3]: ≤ 6 fold
B1: RNase E (694-790) (domain or fragment, E. coli, UniProt P21513 694-790, looked up)
chain: AKALNVEEQSVQETEQEERVRPVQPRRKQRQLNQKVRYEQSVAEEAVVAPVVEETVAAEPIVQEAPAPRTELVKVPLPVVAQTAPEQQEENNADNRD

B2: Blunt duplex 13 nt (dsRNA)
RNA 1: UAGUAACUAAAAC
RNA 2: GUUUUAGUUACUA
Kd ([4]; label: none, blunt): 155 ± 33.7 µM
Kd ([5]; label: none, blunt): 488 ± 40.5 µM

B3: Blunt duplex 21 nt (dsRNA)
RNA 1: UAGUAACUAAAACAUUAAAUU
RNA 2: AAUUUAAUGUUUUAGUUACUA
Kd ([4]; label: none, blunt): 162 ± 30.3 µM

B4: 21 nt single strand (ssRNA)
RNA: UAGUAACUAAAACAUUAAAUU
Kd [4, 6]: 94.9 ± 59.2 µM
Kd [5, 6]: 264.5 ± 1 µM

B5: 3'-OV duplex (dsRNA)
RNA 1: UAGUAACUAAAACAUUAAAUU
RNA 2: GUUUUAGUUACUA
Kd [4, 7]: 216 ± 33.7 µM
Kd [5, 7]: 82.3 ± 27.3 µM
